Measured values taken from PMC10710050, “HCMV-secreted glycoprotein gpUL4 inhibits TRAIL-mediated apoptosis and NK cell activation” (Proceedings of the National Academy of Sciences of the …, 2023).

Target: T1, TRAIL (Recombinant Human TRAIL, BioLegend) (human, UniProt P50591 39-281)
T1 construct: TRAIL (TNFSF10), human, recombinant soluble protein from BioLegend; The catalogue number is printed for the ELISA; SPR names BioLegend only; also called TNFSF10; soluble TRAIL; source: bought: BioLegend (cat.no 752902)
T1 sequence (P50591 39-281): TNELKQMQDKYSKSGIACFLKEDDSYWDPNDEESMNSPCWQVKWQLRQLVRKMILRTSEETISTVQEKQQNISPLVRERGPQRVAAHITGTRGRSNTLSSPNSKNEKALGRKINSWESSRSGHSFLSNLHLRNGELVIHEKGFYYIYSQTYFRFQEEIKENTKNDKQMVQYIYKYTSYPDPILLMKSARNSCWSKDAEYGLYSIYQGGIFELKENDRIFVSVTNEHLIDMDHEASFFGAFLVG
Assay: SPR; Biacore T100; gpUL4-V5 amine-coupled to a CM5 chip (5000RU), control surface soluble UL141 subtracted; TRAIL or TNFα flowed over (100 nM; kinetics from 3.125, 6.25, 12.5, 25 and 50 nM TRAIL, 1:1 binding fit); 10 mM HEPES, 150 mM NaCl, 0.005% TWEEN-20, pH 7.4
Conditions: both partners purified

B1: gpUL4-V5 (HCMV strain Merlin UL4 gene product with C-terminal V5/avitag/6his epitope tag) (natural protein)
chain: FCIFVSCSISTTTAPVEWKSPDRQIPMNITCANYSGTVNGNVTFRGLQNKTEDFLHWLLGWGHKSICSFFPKLQGNKEQHYMYGITNLTYNCTYDRLTLLNLTTENSGKYYFKREDVNSTFYYSCYNLTVT
modifications: N-linked and O-linked glycosylation on the secreted form (eight consensus N-linked sites; positions not given)
notes: the secreted form from the supernatant was used; Secreted glycoprotein; The tag is V5/avitag/6his in this order at the C-terminus; also called UL4 protein; not shown: V5, C-terminal, kept
- Kd: 0.234 nM
- koff: 0.0002 s⁻¹
- kon: 867000 M⁻¹ s⁻¹
